Data on 10 molecules can be found in patent publication US20250075191A1, “MODIFIED BIOLUMINESCENT ENZYMES” (Light Bio, Inc., priority 2023, published 2025).

A short description of data set [1]: Michaelis-Menten kinetics of HiBiT-fused luciferase in yeast lysates. It counts as biochemical. The note with it: fitted Michaelis-Menten model. An excerpt: To quantify the activity of nnLuz_v4 relative to the parental nnLuz_WT, genetic fusions were made with the HiBiT tag. The HiBiT tag is a small bioluminescent marker that may be appended onto other proteins, thereby providing a mechanism for measuring relative protein concentration. By fusing the tag onto the C-terminus of luciferase, variability in protein concentration can be normalized across independent samples.
Yeast strains expressing fusions of nnLuz_WT and nnLuz_v4 with HiBiT were inoculated into YPD medium and cultured at 30° C. with 220 rpm for 18-20 hours. Then 4 ml of each yeast suspension were centrifuged at 5000 g (4° C.) and resuspended in 400 μL of 100 mM MOPS (pH=7.5), 4 mM EDTA, 2 mM TCEP, 1 mM PMSF. […]
Samples were diluted 25 fold in the same buffer as used for lysis and concentrated to a volume of 200 μL using Amicon Ultra-15 Centrifugal Filter Unit 10 kDa (Millipore). […] Luminescence was measured in Tecan Spark plate-reader with exposure of 500 ms for 15 min. Activity of each variant was normalized to the expression level of HiBiT, as quantified with HiBiT lytic reagent (Promega N3030).
To quantify luminescence, intensity values of the wells were normalized by the integral values for HiBiT luminescence kinetics. Then, the integral signal for each sample was calculated. […]
Background: HiBiT is a short tag that completes a luciferase, so light tracks the accessible tagged protein.

Data set [2] has as its system yeast cells (P. pastoris). The data set is described as follows: Stability of luciferase within yeast cells after 10 min incubation at different temperatures. It counts as cell-based. As to conditions: then luciferin; for reduction of luminescence after incubation at 40° C.: 10 min at 40° C.; for reduction of luminescence after incubation at 45° C.: 10 min at 45° C. Here is the method:
To evaluate stability of nnLuz_WT and nnLuz_v4 within yeast cells, strains expressing nnLuz WT or nnLux_v4 were grown on plates for 24 hours, then resuspended in PBS to final OD (600 nm)=5 and 50 μl was placed in wells of a 96-well PCR plate. Different portions of the plate were incubated at different temperatures for 10 minutes using a gradient thermal cycler. The plate were then placed on ice for 5 minutes and 10 μl of 500 μM luciferin (2% DMSO, 10 mM thioglycolic acid, 0.1% DDM in DPBS) were added to each well. Then 25 μl of suspension from each well was transferred to a black 96-well plate containing 0.2 M sodium phosphate buffer with 0.5 M Na2SO4,pH=8.

Another data set relates to Pichia pastoris GS115. The data set is described as follows: Luminescence imaging of transformed yeast after addition of luciferin, hispidin or caffeic acid. It counts as cell-based. The method, then:
Integration of plasmids into the genome of Pichia pastoris GS115 was targeted at the GAP promoter locus. Linearized plasmids were used for the transformation of electrically competent yeast cells. Colonies were selected using […] of G418 or 200 mg/ml of hygromycin or 50 mg/ml of zeocin. PCR-based screening of yeast colonies was done by heating up colonies in 10 μl of 20 mM NaOH at 90° C. for 7 min and then using 1 μl of the resulting solution for direct PCR. For luminescence imaging, yeast culture grown on plate was resuspended in 50 μL of 1M sorbitol. 5 μL of the suspension was then added in 3 replicates to YPD agar plates lacking antibiotics. […] Imaging was performed in Fusion Pulse (Vilber, France), with exposure of 0.1 or 5 sec every 3 or 5 min for 1.0-1.5 hours—for caffeic acid treatment, with exposure of 20 sec for 20 mins—for hispidin treatment, with exposure of 0.5 sec every 10 sec for 10 mins in case of luciferin treatment.
Processing of images was performed using FiJi ImageJ distribution (version 1.53t) 20 and custom Python scripts (Python version 3.8). For luminescence quantification mean values in the region of interest after background subtraction were used. Background subtraction was performed using the following formula: signal=signalraw−(backgroundmean−3*backgroundSD).

The nature of data set [3]: Luciferase luminescence in E. coli lysates after luciferin addition. The format is biochemical. The note with it: 100 μM luciferin, maximal brightness. The source says:
A library of amino acid substitutions was created applying mutagenesis to a gene encoding the luciferase derived from Neonothopanus nambi (SEQ ID NO: 8). pF4Ag shuttle vector (Promega) was used for gene expression in E. coli (T7 promoter-driven expression) and mammalian cells (CMV promoter-driven expression). The pF4Ag vector backbone introduces a C-terminal 3×-FLAG-HiBiT tag. Site-directed mutagenesis was used to substitute consensus amino acids at selected position in the luciferase sequence. Gene expression was performed in the E. coli strain KRX (Promega), which enables rhamnose-inducible expression of T7 RNA polymerase.
Colonies (in triplicate) were used to inoculate LB broth containing ampicillin ([…]) and cultures grown overnight in 96-well microtiter plates (20 hours, 37° C.). Cultures were diluted into fresh LB containing 0.1% rhamnose and ampicillin and grown for 3 hours at 37° C. 50 μl of the induced culture was lysed for 5 minutes at ambient temperature with a reagent consisting of 25 mM HEPES pH 7.5 and 0.3×PLB (E1941 Promega). 50 μl of lysate was combined with 50 μl luciferin (100 μM) in the lysis buffer and samples were measured for total luminescence using a GloMax®-Multi+luminometer. (Promega).

A short description of data set [4]: Enzyme thermostability in cleared E. coli lysates incubated at 22° C. The note with it: then 100 μM luciferin. It counts as biochemical. The method, then:
To assess the effect on enzyme thermostability by the amino acid substitutions, lysates of transformed E. coli were prepared by sonication and cleared by centrifugation. The cleared lysates were diluted 1:100 into Tris-buffered saline with 0.01% BSA and 0.1% n-dodecyl β-D-maltoside. 100 μl of each diluted lysate were added to a 96-well PCR plate. Samples were incubated at 22° C. and at various time points aliquots were placed on ice. When all of the samples were processed, 50 μl of each was combined with 50 μl of 100 μM luciferin in Tris-buffered saline with 0.01% BSA and 0.1% n-dodecyl β-D-maltoside. Samples were immediately placed in a GloMax®-Multi+luminometer (Promega) to measure bioluminescence.

A further data set relates to HEK293 cells. Put plainly: Hispidin hydroxylase activity in HEK293 cells co-transfected with nnLuz_v3, hispidin added, normalized to HiBiT. It counts as cell-based. The method, then:
A library of amino acid substitutions was created applying mutagenesis to a gene encoding the hispidin hydroxylase derived from Neonothopanus nambi (SEQ ID NO: 12). This was achieved by the same method as described in Example 1. Activity was evaluated in HEK293 cells co-transfected with a gene encoding nnLuz_v3. Bioluminescence was measured as described in Example 1, except with addition of hispidin instead of luciferin.
To estimate specific activity, both luciferase activity and HiBiT were measure for each sample (see Example 2). Activity of each variant was then normalized to the expression level (i.e., luciferase bioluminescence/HiBiT signal). Substitutions at 28 positions were examined by this method.

Where a chain is given by its changes, count along the chain named. In names and notes the source's numbering stands.

B1: nnLuz_v4 (protein, listed as Neonothopanus nambi)
chain: MRSTISLSSLLERLSKLSSRSIAITCGVVLASAIAFPIIRRDYQTFLEVGPSYAPQNFRGYITVCVLSLFRQEQKGLAIYDRLPEKRRWLADLPFREGPRPSITSHIIQRQRTQLVDQEFATRELIDKVIPRVQARHTDKTFLSTSKFEFHAKAIFLLPSIPINDPLNIPSHDTVRRTKREIAHMHDYHDCSLHLALAPQDGKEVLKKGWGQRHPLAGPGVPGPPTEWTFLYAPRNEEEARVVEMIVEASIGYMTNDPAGKIVENAKGS
For the molecule B1, the “Km relative to nnLuz_WT” value in data set [1] is reported as “similar”. Besides, the “higher Vmax relative to nnLuz_WT” value in data set [1] (normalized to HiBiT) is 4.2 fold. Besides, in data set [2], the “reduction of luminescence after incubation at 40° C.” value is “no loss of activity” and the “reduction of luminescence after incubation at 45° C.” value was found to be 3 fold. For the same molecule, in the data set on Pichia pastoris GS115 (addition of 50 μM luciferin), the “bioluminescence relative to cells expressing nnLuz_WT” value was “greater bioluminescence”. Besides, in the data set on Pichia pastoris GS115 (combined with nnH3H_v2, mcitHispS and NpgA, caffeic acid), the “greater luminescence relative to nnLuz_WT” value is reported as 1.9 fold.

B2: T99P: nnLuz luciferase variant with single amino acid substitution T99P (protein, UniProt A0A3G9JYH7 1-267, looked up, variant T99P)
Luciferase: MRINISLSSLFERLSKLSSRSIAITCGVVLASAIAFPIIRRDYQTFLEVGPSYAPQNFRGYIIVCVLSLFRQEQKGLAIYDRLPEKRRWLADLPFREGPRPSITSHIIQRQRTQLVDQEFATRELIDKVIPRVQARHTDKTFLSTSKFEFHAKAIFLLPSIPINDPLNIPSHDTVRRTKREIAHMHDYHDCTLHLALAAQDGKEVLKKGWGQRHPLAGPGVPGPPTEWTFLYAPRNEEEARVVEMIVEASIGYMTNDPAGKIVENAK
With B2, in data set [3], the “production of bioluminescence relative to parental nnLuz” value is on record as “significant improvements”. Also, the “enzyme stability relative to unmodified parental luciferase” value in data set [4] is given as “more stable”.

B3: T192S: nnLuz luciferase variant with single amino acid substitution T192S (protein, listed as Neonothopanus nambi)
chain: B2 Luciferase with P99T, T192S
As for B3, in data set [3], the “production of bioluminescence relative to parental nnLuz” value is reported as “significant improvements”. Further, in data set [4], the “enzyme stability relative to unmodified parental luciferase” value was “more stable”.

B4: A199P: nnLuz luciferase variant with single amino acid substitution A199P (protein, listed as Neonothopanus nambi)
chain: B2 Luciferase with P99T, A199P
For B4, the “production of bioluminescence relative to parental nnLuz” value in data set [3] is reported as “significant improvements”. For the same molecule, in data set [4], the “enzyme stability relative to unmodified parental luciferase” value is “more stable”.

B5: nnLuz_WT: parental luciferase derived from Neonothopanus nambi (SEQ ID NO: 1) (protein, listed as Neonothopanus nambi)
chain: B2 Luciferase with P99T
In the case of B5, in data set [2], the “reduction of luminescence after incubation at 40° C.” value is reported as > 3 fold and the “reduction of luminescence after incubation at 45° C.” value is 100 fold.

B6: D37E: nnH3H hispidin hydroxylase variant with single substitution D37E (protein, listed as Neonothopanus nambi)
chain: MASFENSLSVLIVGAGLGGLAAAIALRRQGHVVKIYESSSFKAELGAGLAVPPNTLRSLQQLGCNTENLNGVDNLCFTAMGYDGSVGMMNNMTDYREAYGTSWIMVHRVDLHNELMRVALDPGGLGPPATLHLNHRVTFCDVDACTVTFTNGTTQSADLIVGADGIRSTIRRFVLEEDVTVPASGIVGFRWLVQADALDPYPELDWIVKKPPLGARLISTPQNPQSGVGLADRRTIIIYACRGGTMVNVLAVHDDERDQNTADWSVPASKDDLFRVFHDYHPRFRRLLELAQDINLWQMRVVPVLKKWVNKRVCLLGDAAHASLPTLGQGFGMGLEDAVALGTLLPKGTTASQIETRLAVYEQLRKDRAEFVAAESYEEQYVPEMRGLYLRSKELRDRVMGYDIKVESEKVLETLLRSSNSA
With B6, the “bioluminescence over parental enzyme nnH3H_WT, normalized to expression level (HiBiT)” value in the data set on HEK293 cells is on record as “significantly increased bioluminescence”.

B7: A183P: nnH3H hispidin hydroxylase variant with single substitution A183P (protein, listed as Neonothopanus nambi)
chain: B6 chain with E37D, A183P
On to B7, for which the “bioluminescence over parental enzyme nnH3H_WT, normalized to expression level (HiBiT)” value with HEK293 cells is given as “significantly increased bioluminescence”.

B8: M385K: nnH3H hispidin hydroxylase variant with single substitution M385K (protein, listed as Neonothopanus nambi)
chain: B6 chain with E37D, M385K
With B8, in the data set on HEK293 cells, the “bioluminescence over parental enzyme nnH3H_WT, normalized to expression level (HiBiT)” value is on record as “significantly increased bioluminescence”.

B9: S323M: nnH3H hispidin hydroxylase variant with single substitution S323M (protein, listed as Neonothopanus nambi)
chain: B6 chain with E37D, S323M
Take B9: the “bioluminescence over parental enzyme nnH3H_WT, normalized to expression level (HiBiT)” value with HEK293 cells was “significantly increased bioluminescence”.

B10: V181I: nnH3H hispidin hydroxylase variant with single substitution V181I (protein, listed as Neonothopanus nambi)
chain: B6 chain with E37D, V181I
With B10, in the data set on HEK293 cells, the “bioluminescence over parental enzyme nnH3H_WT, normalized to expression level (HiBiT)” value is given as “significantly increased bioluminescence”.
